From US20250302962A1, “BIOCONJUGATE COMPRISING A PHOTOSENSITIZER UNIT, METHOD FOR ITS PREPARATION AND USE THEREOF” (UNIVERSITE DE BORDEAUX, priority 2021, published 2025)

What was measured:
Assay type in all cases: physicochemical
[1] = Singlet oxygen quantum yield of the phthalocyanine; conditions: measured in dimethylsulfoxide
From the text: It has particularly outstanding photo-physical properties. […] Singlet oxygen quantum yield of this phthalocyanine, measured in dimethylsulfoxide, mounts up to ϕΔ=0.72. The presence of the tert-butyl groups not only minimizes the formation of molecular aggregates, but also increases the solubility of the compound in organic solvents.

[2] = Turbidity assay, onset transition temperature (Tt) of ELP and TT1 bioconjugates in PBS; conditions: for Tt in PBS: PBS pH 7.4, onset transition temperature
Method: UV-Vis spectroscopy: The transition temperatures (Tt) are determined by following the turbidity at 600 or 500 nm absorption versus temperature on Agilent Cary 100 UV-Vis spectrophotometer equipped with a multicell thermo-electric temperature controller. Turbidity is measured over a temperature range from 10 to 60° C. at 1° C. min^−1 of a scan rate before and after the conjugation reaction at three concentrations of phthalocyanine (10, 20 and 30 μM) in phosphate buffer (PBS, pH 7.4).
The thermo-responsive character of ELP, before and after TT1 conjugation, is measured by turbidity assays in phosphate buffer (PBS, pH 7.4) following the absorbance at 600 and 500 nm, respectively, over a temperature range from 10 to 60° C.
The same analysis is carried out for TT1-ELP(O) (obtained by chemical oxidation of methionyl groups) and TT1-ELP^PhOx (obtained by oxidation triggered by photo-irradiation of methionyl groups).

[3] = Dynamic light scattering size distribution of TT1-ELP and TT1-ELP^PhOx
Method: Dynamic light scattering: The DLS measurements of TT1-ELP (at 20° C. and 37° C.) and TT1-ELP^PhOx (at 37° C.) are performed on a Nano ZS 90 instrument (HeNe laser 632.8 nm, Malvern) at a 90° angle at a constant position in the cuvette (constant scattering volume at 30 μM concentration in 1×PBS, pH 7.4). The values of Z-average hydrodynamic diameter (DH) and polydispersity index (PDI) are obtained from the 2nd order cumulant fit using a CONTIN-like algorithm.
In order to mimic the self-assembly and photooxidation-triggered disassembly profile of TT1-ELP, dynamic light scattering (DLS) measurements are performed in physiological conditions (PBS pH 7.4 at 37° C.) on TT1-ELP and TT1-ELP^PhOx.
Due to the stacking tendency of TT1 upon direct dissolution of TT1-ELP in PBS at ambient temperature, 60 nm micelles with narrow size distribution (PDI 0.2) are observed in DLS measurement conducted at 165° angle via 657 nm laser (FIG. 5-A)).

[4] = direct dissolution in PBS, ambient temperature, 165° angle, 657 nm laser

9(10),16(17),23(24)-Tri-tert-butyl-2-carboxy-5,28:14,19-diimino-7,12:21,26-dinitrilotetrabenzo[c,h,m,r][1,6,11,16]tetraazacycloeicosinato-(2)-N^29,N^30,N^31,N^32zinc(II) [TT1]
Singlet oxygen quantum yield ϕΔ [1]: 0.72

B1: TT1-ELP: phthalocyanine TT1 coupled by CuAAC triazole linker to the N-terminus of ELP (SEQ ID No: 11) (conjugate)
chain: MWVPGVGVPGMGVPGVGVPGVGVPGVGVPGMGVPGVGVPGVGVPGVGVPGMGVPGVGVPGVGVPGVGVPGMGVPGVGVPGVGVPGVGVPGMGVPGVGVPGVGVPGVGVPGMGVPGVGVPGVGVPGVGVPGMGVPGVGVPGVGVPGVGVPGMGVPGVGVPGVGVPGVGVPGMGVPGVGVPGVGVPGVGVPGMGVPGVGVPGVG
modifications: N-terminal phthalocyanine TT1 via triazole; Elastin-like polypeptide
Tt in PBS ([2]; 10 μM): 29 °C
Tt in PBS ([2]; 20 μM): 28 °C
solubility ([2]; 10, 20 and 30 μM in PBS pH 7.4 at 10° C.): fully soluble
drop of Tt after conjugation of TT1 ([2]; versus ELP, PBS pH 7.4): approximately 10 °C
particle size (hydrodynamic diameter) ([3]; above Tt, 37° C., PBS pH 7.4): 1.5 μm
PDI [3, 4]: 0.2
micelle size [3, 4]: 60 nm
aggregation state by DLS ([3]; temperature dropped back to 20° C., PBS pH 7.4): disassembly of these aggregates
